Measurements as given in patent US20200199241A1 (Chugai, published 2020).

T1: FcγRIIa type H (human, UniProt P12318 36-217)
T1 construct: also called FcγRIIaH; FcγRIIH
T1 sequence: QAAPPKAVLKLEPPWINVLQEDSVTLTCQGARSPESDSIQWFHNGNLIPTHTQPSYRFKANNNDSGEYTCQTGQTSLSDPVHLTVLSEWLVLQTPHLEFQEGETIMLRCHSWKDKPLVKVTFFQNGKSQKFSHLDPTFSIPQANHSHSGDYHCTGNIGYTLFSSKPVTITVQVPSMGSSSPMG

T2: FcγRIIb (human, UniProt P31994 43-217, limits assumed)
T2 construct: also called FcgRIIb; FcγIIB
T2 sequence: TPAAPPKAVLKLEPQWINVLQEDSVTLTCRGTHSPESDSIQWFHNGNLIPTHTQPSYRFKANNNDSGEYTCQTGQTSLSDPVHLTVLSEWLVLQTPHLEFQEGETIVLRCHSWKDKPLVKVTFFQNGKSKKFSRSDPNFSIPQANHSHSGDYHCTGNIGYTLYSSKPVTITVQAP


Assays:
Assay in all cases: SPR (Biacore), bound amount, IL6R-BF648/IL6R-L = 100
[1] = target: T3, FcγRIIIa type V (human, UniProt P08637 17-208, limits assumed)
T3 construct: also called FcγRIIIaV; FcgRIIIaV
T3 sequence (P08637 other isoform, or with tags, fused parts or gaps limits assumed): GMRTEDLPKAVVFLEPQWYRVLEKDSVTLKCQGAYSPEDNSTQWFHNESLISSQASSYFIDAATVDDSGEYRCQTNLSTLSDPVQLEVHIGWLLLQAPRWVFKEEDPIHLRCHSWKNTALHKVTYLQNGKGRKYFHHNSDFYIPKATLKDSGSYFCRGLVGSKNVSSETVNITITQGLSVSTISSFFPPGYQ
Description: (§1) According to the following method, relative binding activities were calculated for the results of analyzing interactions with the respective FcγRs.

[2] = target: T1, FcγRIIa type H
Description: as §1

[3] = target: T2, FcγRIIb
Description: as §1

[4] = target: T4, FcγRIa (human, UniProt P12314 16-292, limits assumed)
T4 construct: also called FcgRIa; CD64
T4 sequence (P12314 16-292 limits assumed): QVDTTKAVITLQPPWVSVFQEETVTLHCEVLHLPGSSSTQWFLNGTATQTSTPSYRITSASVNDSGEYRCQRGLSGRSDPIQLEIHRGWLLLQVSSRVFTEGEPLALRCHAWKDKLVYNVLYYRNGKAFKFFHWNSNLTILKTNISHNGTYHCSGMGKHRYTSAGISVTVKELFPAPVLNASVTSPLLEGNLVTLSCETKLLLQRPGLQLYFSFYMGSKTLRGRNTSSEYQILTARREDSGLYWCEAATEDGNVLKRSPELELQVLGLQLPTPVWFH
Description: as §1

| relative binding activity [1] | relative binding activity [2] | relative binding activity [3] | relative binding activity [4] | Binder |
| --- | --- | --- | --- | --- |
| 104 % of control | 158 % of control | 152 % of control | 19 % of control | IL6R-BP085/IL6R-L (antibody, human IgG1, IgG1; Fc variant of IL6R-B3; copies: 2 + 2) heavy: QVQLQESGPGLVKPSETLSLTCAVSGHSISHDHAWSWVRQPPGEGLEWIGFISYSGITNYNPSLQGRVTISRDNSKNTLYLQMNSLRAEDTAVYYCARSLARTTAMDYWGEGTLVTVSSASTKGPSVFPLAPSSKSTSGGTAALGCLVKDYFPEPVTVSWNSGALTSGVHTFPAVLQSSGLYSLSSVVTVPSSSLGTQTYICNVNHKPSNTKVDKKVEPKSCDKTHTCPPCPAPELLGDDSVFLFPPKPKDTLMISRTPEVTCVVVDVSHEDPEVKFNWYVDGVEVHNAKTKPREEQYNSTYRVVSVLTVLHQDWLNGKEYKCKVSNKALPKPIEKTISKAKGQPREPQVYTLPPSRDELTKNQVSLTCLVKGFYPSDIAVEWESNGQPENNYKTTPPVLDSDGSFFLYSKLTVDKSRWQQGNVFSCSVMHEALHNHYTQESLSLSP light: DIQMTQSPSSLSASVGDRVTITCRASQDISSYLNWYQQKPGKAPKLLIYYTSRLHSGVPSRFSGSGSGTDFTFTISSLQPEDIATYYCQQGNTLPYTFGQGTKVEIK |
| 87 % of control |  | 165 % of control | 128 % of control | IL6R-BP211/IL6R-L (antibody, human IgG1, IgG1; Fc variant of IL6R-B3; copies: 2 + 2) heavy: QVQLQESGPGLVKPSETLSLTCAVSGHSISHDHAWSWVRQPPGEGLEWIGFISYSGITNYNPSLQGRVTISRDNSKNTLYLQMNSLRAEDTAVYYCARSLARTTAMDYWGEGTLVTVSSASTKGPSVFPLAPSSKSTSGGTAALGCLVKDYFPEPVTVSWNSGALTSGVHTFPAVLQSSGLYSLSSVVTVPSSSLGTQTYICNVNHKPSNTKVDKKVEPKSCDKTHTCPPCPAPDLLGGDSVFLFPPKPKDTLMISRTPEVTCVVVDVSDEDGEVKFNWYVDGVEVHNAKTKPREEQYNSTYRVVSVLTVLHQDWLNGKEYKCKVSNAALPRPIEKTISKAKGQPREPQVYTLPPSRDELTKNQVSLTCLVKGFYPSDIAVEWESNGQPENNYKTTPPVLDSDGSFFLYSKLTVDKSRWQQGNVFSCSVMHEALHNHYTQESLSLSP light: DIQMTQSPSSLSASVGDRVTITCRASQDISSYLNWYQQKPGKAPKLLIYYTSRLHSGVPSRFSGSGSGTDFTFTISSLQPEDIATYYCQQGNTLPYTFGQGTKVEIK |
| 123 % of control | 116 % of control | 137 % of control | 72 % of control | IL6R-BP086/IL6R-L (antibody, human IgG1, IgG1; Fc variant of IL6R-B3; copies: 2 + 2) heavy: QVQLQESGPGLVKPSETLSLTCAVSGHSISHDHAWSWVRQPPGEGLEWIGFISYSGITNYNPSLQGRVTISRDNSKNTLYLQMNSLRAEDTAVYYCARSLARTTAMDYWGEGTLVTVSSASTKGPSVFPLAPSSKSTSGGTAALGCLVKDYFPEPVTVSWNSGALTSGVHTFPAVLQSSGLYSLSSVVTVPSSSLGTQTYICNVNHKPSNTKVDKKVEPKSCDKTHTCPPCPAPELLGGDSVFLFPPKPKDTLMISRTPEVTCVVVDVSHEDPEVKFNWYVDGVEVHNAKTKPREEQYNSTYRVVSVLTVLHQDWLNGKEYKCKVSNAALPKPIEKTISKAKGQPREPQVYTLPPSRDELTKNQVSLTCLVKGFYPSDIAVEWESNGQPENNYKTTPPVLDSDGSFFLYSKLTVDKSRWQQGNVFSCSVMHEALHNHYTQESLSLSP light: DIQMTQSPSSLSASVGDRVTITCRASQDISSYLNWYQQKPGKAPKLLIYYTSRLHSGVPSRFSGSGSGTDFTFTISSLQPEDIATYYCQQGNTLPYTFGQGTKVEIK |

The remaining lines, values behind:

| Binder | relative binding activity [1] | relative binding activity [2] | relative binding activity [3] | relative binding activity [4] |
| --- | --- | --- | --- | --- |
| IL6R-2B253/IL6R-L (antibody, human IgG1, IgG1; Fc variant of IL6R-B3; copies: 2 + 2) heavy: QVQLQESGPGLVKPSETLSLTCAVSGHSISHDHAWSWVRQPPGEGLEWIGFISYSGITNYNPSLQGRVTISRDNSKNTLYLQMNSLRAEDTAVYYCARSLARTTAMDYWGEGTLVTVSSASTKGPSVFPLAPSSKSTSGGTAALGCLVKDYFPEPVTVSWNSGALTSGVHTFPAVLQSSGLYSLSSVVTVPSSSLGTQTYICNVNHKPSNTKVDKKVEPKSCDKTHTCPPCPAPDLLGGDSVFLFPPKPKDTLMISRTPEVTCVVVDVSHEDPEVKFNWYVDGVEVHNAKTKPREEQYNSTYRVVSVLTVLHQDWLNGKEYKCKMSNKALPAPIEKTISKAKGQPREPQVYTLPPSRDELTKNQVSLTCLVKGFYPSDIAVEWESNGQPENNYKTTPPVLDSDGSFFLYSKLTVDKSRWQQGNVFSCSVMHEALHNHYTQESLSLSP light: DIQMTQSPSSLSASVGDRVTITCRASQDISSYLNWYQQKPGKAPKLLIYYTSRLHSGVPSRFSGSGSGTDFTFTISSLQPEDIATYYCQQGNTLPYTFGQGTKVEIK | 126 % of control | 207 % of control | 156 % of control | 155 % of control |
| IL6R-BP082/IL6R-L (antibody, human IgG1, IgG1; Fc variant of IL6R-B3; copies: 2 + 2) heavy: QVQLQESGPGLVKPSETLSLTCAVSGHSISHDHAWSWVRQPPGEGLEWIGFISYSGITNYNPSLQGRVTISRDNSKNTLYLQMNSLRAEDTAVYYCARSLARTTAMDYWGEGTLVTVSSASTKGPSVFPLAPSSKSTSGGTAALGCLVKDYFPEPVTVSWNSGALTSGVHTFPAVLQSSGLYSLSSVVTVPSSSLGTQTYICNVNHKPSNTKVDKKVEPKSCDKTHTCPPCPAPDLLGGDSVFLFPPKPKDTLMISRTPEVTCVVVDVSHEDPEVKFNWYVDGVEVHNAKTKPREEQYNSTYRVVSVLTVLHQDWLNGKEYKCKVSNKALPKPIEKTISKAKGQPREPQVYTLPPSRDELTKNQVSLTCLVKGFYPSDIAVEWESNGQPENNYKTTPPVLDSDGSFFLYSKLTVDKSRWQQGNVFSCSVMHEALHNHYTQESLSLSP light: DIQMTQSPSSLSASVGDRVTITCRASQDISSYLNWYQQKPGKAPKLLIYYTSRLHSGVPSRFSGSGSGTDFTFTISSLQPEDIATYYCQQGNTLPYTFGQGTKVEIK | 67 % of control | 106 % of control | 136 % of control | 74 % of control |
| IL6R-BP083/IL6R-L (antibody, human IgG1, IgG1; Fc variant of IL6R-B3; copies: 2 + 2) heavy: QVQLQESGPGLVKPSETLSLTCAVSGHSISHDHAWSWVRQPPGEGLEWIGFISYSGITNYNPSLQGRVTISRDNSKNTLYLQMNSLRAEDTAVYYCARSLARTTAMDYWGEGTLVTVSSASTKGPSVFPLAPSSKSTSGGTAALGCLVKDYFPEPVTVSWNSGALTSGVHTFPAVLQSSGLYSLSSVVTVPSSSLGTQTYICNVNHKPSNTKVDKKVEPKSCDKTHTCPPCPAPELLGGDSVFLFPPKPKDTLMISRTPEVTCVVVDVSHEDPEVKFNWYVDGVEVHNAKTKPREEQDNSTYRVVSVLTVLHQDWLNGKEYKCKVSNKALPKPIEKTISKAKGQPREPQVYTLPPSRDELTKNQVSLTCLVKGFYPSDIAVEWESNGQPENNYKTTPPVLDSDGSFFLYSKLTVDKSRWQQGNVFSCSVMHEALHNHYTQESLSLSP light: DIQMTQSPSSLSASVGDRVTITCRASQDISSYLNWYQQKPGKAPKLLIYYTSRLHSGVPSRFSGSGSGTDFTFTISSLQPEDIATYYCQQGNTLPYTFGQGTKVEIK | 107 % of control | 91 % of control | 122 % of control | 50 % of control |
| IL6R-2B261/IL6R-L (antibody, human IgG1, IgG1; Fc variant of IL6R-B3; copies: 2 + 2) heavy: QVQLQESGPGLVKPSETLSLTCAVSGHSISHDHAWSWVRQPPGEGLEWIGFISYSGITNYNPSLQGRVTISRDNSKNTLYLQMNSLRAEDTAVYYCARSLARTTAMDYWGEGTLVTVSSASTKGPSVFPLAPSSKSTSGGTAALGCLVKDYFPEPVTVSWNSGALTSGVHTFPAVLQSSGLYSLSSVVTVPSSSLGTQTYICNVNHKPSNTKVDKKVEPKSCDKTHTCPPCPAPDLLGGDSVFLFPPKPKDTLMISRTPEVTCVVVDVSHEDPEVKFNWYVDGVEVHNAKTKPREEQDNSTYRVVSVLTVLHQDWLNGKEYKCKVSNKALPAPIEKTISKAKGQPREPQVYTLPPSRDELTKNQVSLTCLVKGFYPSDIAVEWESNGQPENNYKTTPPVLDSDGSFFLYSKLTVDKSRWQQGNVFSCSVMHEALHNHYTQESLSLSP light: DIQMTQSPSSLSASVGDRVTITCRASQDISSYLNWYQQKPGKAPKLLIYYTSRLHSGVPSRFSGSGSGTDFTFTISSLQPEDIATYYCQQGNTLPYTFGQGTKVEIK | 87 % of control | 91 % of control | 115 % of control | 100 % of control |
| IL6R-BP084/IL6R-L (antibody, human IgG1, IgG1; Fc variant of IL6R-B3; copies: 2 + 2) heavy: QVQLQESGPGLVKPSETLSLTCAVSGHSISHDHAWSWVRQPPGEGLEWIGFISYSGITNYNPSLQGRVTISRDNSKNTLYLQMNSLRAEDTAVYYCARSLARTTAMDYWGEGTLVTVSSASTKGPSVFPLAPSSKSTSGGTAALGCLVKDYFPEPVTVSWNSGALTSGVHTFPAVLQSSGLYSLSSVVTVPSSSLGTQTYICNVNHKPSNTKVDKKVEPKSCDKTHTCPPCPAPELLGGDSVFLFPPKPKDTLMISRTPEVTCVVVDVSHEDPEVKFNWYVDGVEVHNAKTKPREEQYNSTYRVVSVLTVLHQDWLNGKEYKCKMSNKALPKPIEKTISKAKGQPREPQVYTLPPSRDELTKNQVSLTCLVKGFYPSDIAVEWESNGQPENNYKTTPPVLDSDGSFFLYSKLTVDKSRWQQGNVFSCSVMHEALHNHYTQESLSLSP light: DIQMTQSPSSLSASVGDRVTITCRASQDISSYLNWYQQKPGKAPKLLIYYTSRLHSGVPSRFSGSGSGTDFTFTISSLQPEDIATYYCQQGNTLPYTFGQGTKVEIK | 106 % of control | 162 % of control | 141 % of control | 109 % of control |
